# Measurements reported in US20210388110A1.
# Target: extracellular matrix (BD Matrigel)
# Assay: ECL on Matrigel-coated plate, relative to MRAH-G1d/MRAL-k0
row,ECM binding ratio (standard = 1),Binder
1,1.7,"TR01H082-E2702GsKsc/GCH065-E2704sEpsc/L0011-k0 (bispecific antibody, human IgG4 S228P, kappa, N297A) heavy 1: QVQLVESGGGLVQPGRSLRLSCAASGFTFSNAWMHWVRQAPGKGLEWVAQIKDKSQNYATYYAESVKGRFTISRDDSKNSLYLQMNSLKTEDTAVYYCRYVHYAAGYGVDAWGQGTTVTVSSASTKGPSVFPLAPCSRSTSESTAALGCLVKDYFPEPVTVSWNSGALTSGVHTFPAVLQSSGLYSLSSVVTVPSSSLGTKTYTCNVDHKPSNTKVDKRVESKYGPPCPPCPAPEFRGGPKVFLFPPKPKDTLMISRTPEVTCVVVDVSQEDPEVQFNWYVDGVEVHNAKTKPREEQFASTYRVVSVLTVLHQDWLNGKEYKCKVSNKGLPSSIEKTISKAKGQPREPQVYTLPPSQKEMTKNQVSLTCLVKGFYPSDIAVEWESNGQPENNYKTTPPVLDSDGSFFLYSKLTVDKSRWQEGNVFSCSVMHEALHNRYTQKSLSLSP heavy 2: QVQLVQSGAEVKKPGASVTVSCKASGYTFTDYEMHWIRQPPGEGLEWIGAIDGPTPDTAYSEKFKGRVTLTADKSTSTAYMELSSLTSEDTAVYYCTRFYSYTYWGQGTLVTVSSASTKGPSVFPLAPCSRSTSESTAALGCLVKDYFPEPVTVSWNSGALTSGVHTFPAVLQSSGLYSLSSVVTVPSSSLGTQTYTCNVDHKPSNTKVDKRVESKYGPPCPPCPAPEFRGGPKVFLFPPKPKDTLMISRTPEVTCVVVDVSQEDPEVQFNWYVDGVEVHNAKTKPREEQFASTYRVVSVLTVLHQDWLNGKEYKCKVSNKGLPSSIEKTISKAKGQPREPQVYTLPPSQEEMTKNQVSLTCLVKGFYPSDIAVEWESNGQPENNYKTTPPVLDSDGSFFLYSKLTVDKSRWQEGNVFSCSVMHEALHNHYTQESLSLSP light: DIVMTQSPLSLPVTPGEPASISCRSSQPLVHSNRNTYLHWYQQKPGQAPRLLIYKVSNRFSGVPDRFSGSGSGTDFTLKISRVEAEDVGVYYCGQGTQVPYTFGQGTKLEIKRTVAAPSVFIFPPSDEQLKSGTASVVCLLNNFYPREAKVQWKVDNALQSGNSQESVTEQDSKDSTYSLSSTLTLSKADYEKHKVYACEVTHQGLSSPVTKSFNRGEC"
2,1.2,"TR01H084-E2702GsKsc/GCH094-E2704sEpsc/L0011-k0 (bispecific antibody, human IgG4 S228P, kappa, N297A) heavy 1: QVQLVESGGGVVQPGGSLRLSCAASGFTFSNAWMHWVRQAPGKGLEWVAQIKDKSQNYATYYAESVKGRFTISRADSKNSIYLQMNSLKTEDTAVYYCRYVHYAAGYGVDIWGQGTTVTVSSASTKGPSVFPLAPCSRSTSESTAALGCLVKDYFPEPVTVSWNSGALTSGVHTFPAVLQSSGLYSLSSVVTVPSSSLGTKTYTCNVDHKPSNTKVDKRVESKYGPPCPPCPAPEFRGGPKVFLFPPKPKDTLMISRTPEVTCVVVDVSQEDPEVQFNWYVDGVEVHNAKTKPREEQFASTYRVVSVLTVLHQDWLNGKEYKCKVSNKGLPSSIEKTISKAKGQPREPQVYTLPPSQKEMTKNQVSLTCLVKGFYPSDIAVEWESNGQPENNYKTTPPVLDSDGSFFLYSKLTVDKSRWQEGNVFSCSVMHEALHNRYTQKSLSLSP heavy 2: QVQLVQSGAEVKKPGASVTVSCKASGYTFTDYEMHWVRQAPGEGLEWMGAIDGETPDTAYSEKFKGRVTLTADKSTSTAYMELSSLTSEDTAVYYCTRFYSYTYWGQGTLVTVSSASTKGPSVFPLAPCSRSTSESTAALGCLVKDYFPEPVTVSWNSGALTSGVHTFPAVLQSSGLYSLSSVVTVPSSSLGTQTYTCNVDHKPSNTKVDKRVESKYGPPCPPCPAPEFRGGPKVFLFPPKPKDTLMISRTPEVTCVVVDVSQEDPEVQFNWYVDGVEVHNAKTKPREEQFASTYRVVSVLTVLHQDWLNGKEYKCKVSNKGLPSSIEKTISKAKGQPREPQVYTLPPSQEEMTKNQVSLTCLVKGFYPSDIAVEWESNGQPENNYKTTPPVLDSDGSFFLYSKLTVDKSRWQEGNVFSCSVMHEALHNHYTQESLSLSP light: DIVMTQSPLSLPVTPGEPASISCRSSQPLVHSNRNTYLHWYQQKPGQAPRLLIYKVSNRFSGVPDRFSGSGSGTDFTLKISRVEAEDVGVYYCGQGTQVPYTFGQGTKLEIKRTVAAPSVFIFPPSDEQLKSGTASVVCLLNNFYPREAKVQWKVDNALQSGNSQESVTEQDSKDSTYSLSSTLTLSKADYEKHKVYACEVTHQGLSSPVTKSFNRGEC"
3,1.3,"TR01H084-E2702GsKsc/GCH065-E2704sEpsc/L0011-k0 (bispecific antibody, human IgG4 S228P, kappa, N297A) heavy 1: QVQLVESGGGVVQPGGSLRLSCAASGFTFSNAWMHWVRQAPGKGLEWVAQIKDKSQNYATYYAESVKGRFTISRADSKNSIYLQMNSLKTEDTAVYYCRYVHYAAGYGVDIWGQGTTVTVSSASTKGPSVFPLAPCSRSTSESTAALGCLVKDYFPEPVTVSWNSGALTSGVHTFPAVLQSSGLYSLSSVVTVPSSSLGTKTYTCNVDHKPSNTKVDKRVESKYGPPCPPCPAPEFRGGPKVFLFPPKPKDTLMISRTPEVTCVVVDVSQEDPEVQFNWYVDGVEVHNAKTKPREEQFASTYRVVSVLTVLHQDWLNGKEYKCKVSNKGLPSSIEKTISKAKGQPREPQVYTLPPSQKEMTKNQVSLTCLVKGFYPSDIAVEWESNGQPENNYKTTPPVLDSDGSFFLYSKLTVDKSRWQEGNVFSCSVMHEALHNRYTQKSLSLSP heavy 2: QVQLVQSGAEVKKPGASVTVSCKASGYTFTDYEMHWIRQPPGEGLEWIGAIDGPTPDTAYSEKFKGRVTLTADKSTSTAYMELSSLTSEDTAVYYCTRFYSYTYWGQGTLVTVSSASTKGPSVFPLAPCSRSTSESTAALGCLVKDYFPEPVTVSWNSGALTSGVHTFPAVLQSSGLYSLSSVVTVPSSSLGTQTYTCNVDHKPSNTKVDKRVESKYGPPCPPCPAPEFRGGPKVFLFPPKPKDTLMISRTPEVTCVVVDVSQEDPEVQFNWYVDGVEVHNAKTKPREEQFASTYRVVSVLTVLHQDWLNGKEYKCKVSNKGLPSSIEKTISKAKGQPREPQVYTLPPSQEEMTKNQVSLTCLVKGFYPSDIAVEWESNGQPENNYKTTPPVLDSDGSFFLYSKLTVDKSRWQEGNVFSCSVMHEALHNHYTQESLSLSP light: DIVMTQSPLSLPVTPGEPASISCRSSQPLVHSNRNTYLHWYQQKPGQAPRLLIYKVSNRFSGVPDRFSGSGSGTDFTLKISRVEAEDVGVYYCGQGTQVPYTFGQGTKLEIKRTVAAPSVFIFPPSDEQLKSGTASVVCLLNNFYPREAKVQWKVDNALQSGNSQESVTEQDSKDSTYSLSSTLTLSKADYEKHKVYACEVTHQGLSSPVTKSFNRGEC"
4,1.1,"TR01H082-E2702GsKsc/GCH094-E2704sEpsc/L0201-k0 (bispecific antibody, human IgG4 S228P, kappa, N297A) heavy 1: QVQLVESGGGLVQPGRSLRLSCAASGFTFSNAWMHWVRQAPGKGLEWVAQIKDKSQNYATYYAESVKGRFTISRDDSKNSLYLQMNSLKTEDTAVYYCRYVHYAAGYGVDAWGQGTTVTVSSASTKGPSVFPLAPCSRSTSESTAALGCLVKDYFPEPVTVSWNSGALTSGVHTFPAVLQSSGLYSLSSVVTVPSSSLGTKTYTCNVDHKPSNTKVDKRVESKYGPPCPPCPAPEFRGGPKVFLFPPKPKDTLMISRTPEVTCVVVDVSQEDPEVQFNWYVDGVEVHNAKTKPREEQFASTYRVVSVLTVLHQDWLNGKEYKCKVSNKGLPSSIEKTISKAKGQPREPQVYTLPPSQKEMTKNQVSLTCLVKGFYPSDIAVEWESNGQPENNYKTTPPVLDSDGSFFLYSKLTVDKSRWQEGNVFSCSVMHEALHNRYTQKSLSLSP heavy 2: QVQLVQSGAEVKKPGASVTVSCKASGYTFTDYEMHWVRQAPGEGLEWMGAIDGETPDTAYSEKFKGRVTLTADKSTSTAYMELSSLTSEDTAVYYCTRFYSYTYWGQGTLVTVSSASTKGPSVFPLAPCSRSTSESTAALGCLVKDYFPEPVTVSWNSGALTSGVHTFPAVLQSSGLYSLSSVVTVPSSSLGTQTYTCNVDHKPSNTKVDKRVESKYGPPCPPCPAPEFRGGPKVFLFPPKPKDTLMISRTPEVTCVVVDVSQEDPEVQFNWYVDGVEVHNAKTKPREEQFASTYRVVSVLTVLHQDWLNGKEYKCKVSNKGLPSSIEKTISKAKGQPREPQVYTLPPSQEEMTKNQVSLTCLVKGFYPSDIAVEWESNGQPENNYKTTPPVLDSDGSFFLYSKLTVDKSRWQEGNVFSCSVMHEALHNHYTQESLSLSP light: DIVMTQSPLSLPVTPGEPASISCRSSQPPVHSNRNTYLHWYQQKPGQAPRLLIYKVSNRFSGVPDRFSGSGSGTDFTLKISRVEAEDVGVYYCGQGTQVPYTFGQGTKLEIKRTVAAPSVFIFPPSDEQLKSGTASVVCLLNNFYPREAKVQWKVDNALQSGNSQESVTEQDSKDSTYSLSSTLTLSKADYEKHKVYACEVTHQGLSSPVTKSFNRGEC"
5,1.6,"TR01H113-E2702GsKsc/GCH094-E2704sEpsc/L0011-k0 (bispecific antibody, human IgG4 S228P, kappa, N297A) heavy 1: QVQLVESGGGVVQPGGSLRLSCAASGFTFSNAWMHWVRQAPGKGLEWVAQIKDKSQNYATYVAESVKGRFTISRADSKNSIYLQMNSLKTEDTAVYYCRYVHYAAGYGVDIWGQGTTVTVSSASTKGPSVFPLAPCSRSTSESTAALGCLVKDYFPEPVTVSWNSGALTSGVHTFPAVLQSSGLYSLSSVVTVPSSSLGTKTYTCNVDHKPSNTKVDKRVESKYGPPCPPCPAPEFRGGPKVFLFPPKPKDTLMISRTPEVTCVVVDVSQEDPEVQFNWYVDGVEVHNAKTKPREEQFASTYRVVSVLTVLHQDWLNGKEYKCKVSNKGLPSSIEKTISKAKGQPREPQVYTLPPSQKEMTKNQVSLTCLVKGFYPSDIAVEWESNGQPENNYKTTPPVLDSDGSFFLYSKLTVDKSRWQEGNVFSCSVMHEALHNRYTQKSLSLSP heavy 2: QVQLVQSGAEVKKPGASVTVSCKASGYTFTDYEMHWVRQAPGEGLEWMGAIDGETPDTAYSEKFKGRVTLTADKSTSTAYMELSSLTSEDTAVYYCTRFYSYTYWGQGTLVTVSSASTKGPSVFPLAPCSRSTSESTAALGCLVKDYFPEPVTVSWNSGALTSGVHTFPAVLQSSGLYSLSSVVTVPSSSLGTQTYTCNVDHKPSNTKVDKRVESKYGPPCPPCPAPEFRGGPKVFLFPPKPKDTLMISRTPEVTCVVVDVSQEDPEVQFNWYVDGVEVHNAKTKPREEQFASTYRVVSVLTVLHQDWLNGKEYKCKVSNKGLPSSIEKTISKAKGQPREPQVYTLPPSQEEMTKNQVSLTCLVKGFYPSDIAVEWESNGQPENNYKTTPPVLDSDGSFFLYSKLTVDKSRWQEGNVFSCSVMHEALHNHYTQESLSLSP light: DIVMTQSPLSLPVTPGEPASISCRSSQPLVHSNRNTYLHWYQQKPGQAPRLLIYKVSNRFSGVPDRFSGSGSGTDFTLKISRVEAEDVGVYYCGQGTQVPYTFGQGTKLEIKRTVAAPSVFIFPPSDEQLKSGTASVVCLLNNFYPREAKVQWKVDNALQSGNSQESVTEQDSKDSTYSLSSTLTLSKADYEKHKVYACEVTHQGLSSPVTKSFNRGEC"
